Measurements published in patent US20260224736A1 (Sanofi, published 2026).

T1: human CD105 (human, UniProt P17813 26-658)
T1 construct: whole, on cells; The target is presented on primary human HSCs; also called HuCD105; endoglin
T1 sequence (looked up): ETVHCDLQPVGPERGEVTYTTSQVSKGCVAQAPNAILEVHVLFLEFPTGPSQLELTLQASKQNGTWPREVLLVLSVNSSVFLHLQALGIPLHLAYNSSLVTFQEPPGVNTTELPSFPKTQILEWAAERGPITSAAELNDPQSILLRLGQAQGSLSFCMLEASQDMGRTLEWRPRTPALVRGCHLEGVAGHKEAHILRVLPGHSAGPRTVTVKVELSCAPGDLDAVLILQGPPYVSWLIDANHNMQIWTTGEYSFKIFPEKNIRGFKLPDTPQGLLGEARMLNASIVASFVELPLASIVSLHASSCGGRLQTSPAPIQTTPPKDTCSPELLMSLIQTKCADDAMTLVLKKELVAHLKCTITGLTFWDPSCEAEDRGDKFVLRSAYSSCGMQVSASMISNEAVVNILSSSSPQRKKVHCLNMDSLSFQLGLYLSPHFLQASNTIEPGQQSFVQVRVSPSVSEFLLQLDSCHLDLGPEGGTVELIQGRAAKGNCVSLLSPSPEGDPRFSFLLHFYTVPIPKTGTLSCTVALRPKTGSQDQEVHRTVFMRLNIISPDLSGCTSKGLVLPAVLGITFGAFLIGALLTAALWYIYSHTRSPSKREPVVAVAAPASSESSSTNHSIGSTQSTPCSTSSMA

B1: anti-HuCD117 Ab2 Fab bDS (Fab, V domains shown)
VH: EVQLVESGGGLVQPGGSLRLSCAASGFTFSDADMDWVRQAPGKGLEWVGRTRNKAGSYTTEYAASVKGRFTISRDDSKNSLYLQMNSLKTEDTAVYYCAREPKYWIDFDLWGRGTLVTVSS
VL: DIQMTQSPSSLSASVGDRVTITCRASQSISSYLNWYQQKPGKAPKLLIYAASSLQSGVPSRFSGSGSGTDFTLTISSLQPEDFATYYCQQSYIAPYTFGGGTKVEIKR
modifications: C-terminal cysteine in the heavy chain covalently coupled to DSPE-PEG(2k)-maleimide (lipid conjugate inserted into the LNP)
notes: Tested only as a lipid-Fab conjugate on the surface of LNPs
B2: anti-HuCD105 Ab3 Fab bDS (Fab, V domains shown)
VH: EVKLEESGGGLVQPGGSMKLSCAASGFTFSDAWMDWVRQSPEKGLEWVAEIRSKASNHATYYAESVKGRFTISRDDSKSSVYLQMNSLRAEDTGIYYCTRWRRFFDSWGQGTTLTVSS
VL: QIVLSQSPAILSASPGEKVTMTCRASSSVSYMHWYQQKPGSSPKPWIYATSNLASGVPVRFSGSGSGTSYSLTISRVEAEDAATYYCQQWSSNPLTFGAGTKLELKR
modifications: C-terminal cysteine in the heavy chain covalently coupled to DSPE-PEG(2k)-maleimide (lipid conjugate inserted into the LNP)
notes: as for B1

Columns and labels:
human CD117 = target: T2, human CD117 (human, UniProt P10721 26-976); assay: flow cytometry of primary human HSCs treated with Fab-conjugated KC3 LNPs; DiI fluorescence as measure of LNP binding
T2 construct: whole, on cells; The target is presented on primary human HSCs, either in vitro or engrafted in NSG mice; No recombinant CD117 was used; also called HuCD117; c-kit
Text: (§1) For conjugation with full-length antibodies, the LNPs were fused with a streptavidin moiety, and the conjugated full-size antibodies were tagged with biotin. Specifically, lysine groups on the streptavidin were reacted with Traut's reagent to covalently attach thiol groups. The thiolated streptavidin was then conjugated to DSPE-PEG(2k)-maleimide via covalent coupling between the maleimide group and the thiol groups attached to the streptavidin. The streptavidin-fused lipid was then reacted with the biotinylated antibody. Finally, the lipid-streptavidin-antibody conjugate was inserted into the LNP by incubation at 60° C. for 1 hour. The LNPs also incorporated a fluorescent lipid dye,′,1′-Dioctadecyl-3,′,3′,3′-Tetramethylindocarbocyanine-5,5′-Disulfonic Acid (DiIC(18)5-DS). The GFP mRNA was used to measure transfection, as the mRNA must enter the cell and escape the endosome to be transcribed into protein, allowing for fluorescence. The DiIC(18)5-DS was used as a measure of LNP targeting because the cells will have DiI fluorescence so long as the LNPs are capable of binding to the HSCs. Therefore, GFP expression provided a measure of LNP transfection while DiI positive events were representative of Fabs that target H—SCs. […] The HSCs were incubated with the LNPs for 24 and 72 hours, after which the GFP fluorescence and DiI fluorescence were measured using flow cytometry.

human CD105 = target: T1, human CD105; assay: as above
Text: as §1

T2 sequence (P10721 26-976): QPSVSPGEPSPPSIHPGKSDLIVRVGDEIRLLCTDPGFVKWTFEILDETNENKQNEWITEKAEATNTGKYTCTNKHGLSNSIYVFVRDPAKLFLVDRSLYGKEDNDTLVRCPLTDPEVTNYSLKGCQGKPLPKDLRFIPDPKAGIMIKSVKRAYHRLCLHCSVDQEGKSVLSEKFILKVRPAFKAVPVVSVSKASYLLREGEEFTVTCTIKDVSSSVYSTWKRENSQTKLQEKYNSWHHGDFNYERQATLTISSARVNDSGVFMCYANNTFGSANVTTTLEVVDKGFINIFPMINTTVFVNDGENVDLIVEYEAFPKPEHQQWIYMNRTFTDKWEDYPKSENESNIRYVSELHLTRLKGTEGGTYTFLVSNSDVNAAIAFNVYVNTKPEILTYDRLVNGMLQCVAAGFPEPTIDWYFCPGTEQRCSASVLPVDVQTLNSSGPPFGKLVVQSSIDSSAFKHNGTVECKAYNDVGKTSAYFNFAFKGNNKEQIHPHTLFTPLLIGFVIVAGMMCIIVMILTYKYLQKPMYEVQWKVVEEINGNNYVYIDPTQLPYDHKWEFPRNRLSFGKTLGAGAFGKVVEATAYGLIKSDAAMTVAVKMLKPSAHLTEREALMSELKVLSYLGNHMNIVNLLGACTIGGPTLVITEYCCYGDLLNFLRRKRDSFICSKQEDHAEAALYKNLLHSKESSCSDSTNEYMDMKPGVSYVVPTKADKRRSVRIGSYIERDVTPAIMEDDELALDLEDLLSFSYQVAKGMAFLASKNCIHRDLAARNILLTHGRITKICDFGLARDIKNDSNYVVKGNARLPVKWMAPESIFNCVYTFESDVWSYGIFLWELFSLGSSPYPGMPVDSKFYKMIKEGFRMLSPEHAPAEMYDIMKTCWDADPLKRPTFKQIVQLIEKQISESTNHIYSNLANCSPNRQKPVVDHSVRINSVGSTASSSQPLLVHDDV

Binder | binding result (human CD117) | binding result (human CD105)
B1 | binds | 
B2 |  | binds
